Assay results: patent US20150203840A1 (ARGEN X N V, published 2015)
Residue numbers refer to the chain shown, from its start.

Columns and labels:
[1] = biological target: T1, recombinant mouse IL22R1 (mouse IL22R ECD) (mouse) (UniProt Q80XZ4); test: Biacore, immobilized mouse IL22R ECD
T1 sequence (biotinylated in the ELISA of Table 4, looked up): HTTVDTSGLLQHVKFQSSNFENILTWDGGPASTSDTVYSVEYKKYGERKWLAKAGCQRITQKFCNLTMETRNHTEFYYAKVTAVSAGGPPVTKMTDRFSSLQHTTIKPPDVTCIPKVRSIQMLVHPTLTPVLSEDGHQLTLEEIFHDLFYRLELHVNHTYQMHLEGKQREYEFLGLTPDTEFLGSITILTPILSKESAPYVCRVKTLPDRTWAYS

[2] = biological target: T2, rhesus IL22R ECD (rhesus) (UniProt G7MHN4); test: ELISA, mAb coated at 100 ng/ml, biotinylated rhesus IL22R ECD at 2 ng/ml, streptavidin-HRP
T2 sequence (chain, biotinylated): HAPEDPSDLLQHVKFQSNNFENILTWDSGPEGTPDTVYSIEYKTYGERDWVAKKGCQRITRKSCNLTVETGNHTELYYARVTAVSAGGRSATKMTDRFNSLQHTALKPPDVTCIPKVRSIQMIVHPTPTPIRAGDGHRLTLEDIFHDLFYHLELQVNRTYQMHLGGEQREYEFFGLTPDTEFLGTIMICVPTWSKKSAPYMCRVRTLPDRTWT

cyno IL22R ECD (cyno) [3] = test: ELISA, mAb coated at 100 ng/ml, biotinylated cyno IL22R ECD at 100 ng/ml, streptavidin-HRP
[4] = biological target: T3, recombinant human IL22R1 (human IL22R ECD) (human) (UniProt Q8N6P7); test: Biacore, immobilized human IL22R ECD
T3 sequence (biotinylated in the ELISA of Table 4, looked up): T2 sequence (chain, biotinylated) with N18S, H73L, N99S, A105T, P115S, E167K, S194A, K196E, R205K

[5] = biological target: T2, rhesus IL22R ECD (rhesus); test: ELISA, mAb coated at 100 ng/ml, biotinylated rhesus IL22R ECD at 100 ng/ml, streptavidin-HRP
[6] = biological target: T3, recombinant human IL22R1 (human IL22R ECD) (human); test: ELISA, mAb coated at 100 ng/ml, biotinylated human IL22R ECD at 100 ng/ml, streptavidin-HRP
[7] = biological target: T1, recombinant mouse IL22R1 (mouse IL22R ECD) (mouse); test: ELISA, mAb coated at 100 ng/ml, biotinylated mouse IL22R ECD at 2 ng/ml, streptavidin-HRP
[8] = biological target: T1, recombinant mouse IL22R1 (mouse IL22R ECD) (mouse); test: ELISA, mAb coated at 100 ng/ml, biotinylated mouse IL22R ECD at 100 ng/ml, streptavidin-HRP
[9] = biological target: T3, recombinant human IL22R1 (human IL22R ECD) (human); test: ELISA, mAb coated at 100 ng/ml, biotinylated human IL22R ECD at 2 ng/ml, streptavidin-HRP
cyno IL22R ECD (cyno) [10] = test: ELISA, mAb coated at 100 ng/ml, biotinylated cyno IL22R ECD at 2 ng/ml, streptavidin-HRP
[11] = biological target: T4, recombinant human IL22R1 (human IL22R ECD) (human, UniProt Q8N6P7 16-228, biotinylated in the ELISA of Table 4); test: Biacore, hIL22R
T4 construct: extracellular domain; also called hIL22R; human Interleukin 22 receptor
T4 sequence (looked up): T2 sequence (chain, biotinylated) with N18S, H73L, N99S, A105T, P115S, E167K, S194A, K196E, R205K

[12] = biological target: T5, human IL22R on BW-hIL22R cells (human, UniProt Q8N6P7 16-574); test: cell-based or functional assay
T5 sequence (looked up): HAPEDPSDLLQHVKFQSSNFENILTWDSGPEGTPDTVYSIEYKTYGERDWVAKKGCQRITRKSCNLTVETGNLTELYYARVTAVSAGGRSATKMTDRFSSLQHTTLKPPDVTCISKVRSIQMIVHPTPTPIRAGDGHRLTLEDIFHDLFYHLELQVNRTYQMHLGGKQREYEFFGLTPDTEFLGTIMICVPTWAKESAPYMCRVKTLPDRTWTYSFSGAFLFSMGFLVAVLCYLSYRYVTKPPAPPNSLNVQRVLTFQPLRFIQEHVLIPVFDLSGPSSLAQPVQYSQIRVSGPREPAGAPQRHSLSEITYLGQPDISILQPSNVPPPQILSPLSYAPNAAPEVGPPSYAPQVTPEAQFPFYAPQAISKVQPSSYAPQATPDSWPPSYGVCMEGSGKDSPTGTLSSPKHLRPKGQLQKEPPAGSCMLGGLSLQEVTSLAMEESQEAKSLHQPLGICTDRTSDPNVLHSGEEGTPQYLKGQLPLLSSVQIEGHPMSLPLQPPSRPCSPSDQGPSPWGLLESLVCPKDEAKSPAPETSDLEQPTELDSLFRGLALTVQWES

[13] = biological target: T5, human IL22R on BW-hIL22R cells; test: cell-based or functional assay; remark: listed apart in the source
[14] = biological target: T6, mouse IL22R on BaF3-mIL22R cells (mouse, UniProt Q80XZ4 16-581); test: cell-based or functional assay
T6 sequence (looked up): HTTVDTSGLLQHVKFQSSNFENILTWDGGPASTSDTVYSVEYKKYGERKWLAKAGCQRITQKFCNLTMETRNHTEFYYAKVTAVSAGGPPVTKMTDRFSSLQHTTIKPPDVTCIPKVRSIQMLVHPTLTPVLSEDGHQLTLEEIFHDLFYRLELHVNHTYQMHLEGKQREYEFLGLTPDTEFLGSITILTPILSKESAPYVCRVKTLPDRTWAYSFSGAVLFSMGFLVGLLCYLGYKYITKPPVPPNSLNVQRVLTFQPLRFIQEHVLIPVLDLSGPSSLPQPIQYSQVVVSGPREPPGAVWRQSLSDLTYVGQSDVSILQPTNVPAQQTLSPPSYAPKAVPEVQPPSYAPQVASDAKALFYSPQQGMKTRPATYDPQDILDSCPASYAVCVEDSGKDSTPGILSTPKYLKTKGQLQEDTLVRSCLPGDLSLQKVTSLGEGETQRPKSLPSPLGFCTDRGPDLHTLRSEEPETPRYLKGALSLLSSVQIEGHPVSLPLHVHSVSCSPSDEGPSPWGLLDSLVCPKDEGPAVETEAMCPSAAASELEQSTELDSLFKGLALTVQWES

[15] = biological target: T7, recombinant mouse IL22R1 (mouse IL22R ECD) (mouse, UniProt Q80XZ4 16-230, biotinylated in the ELISA of Table 4); test: Biacore, mIL22R
T7 construct: extracellular domain; also called mIL22R; mIL22R1
T7 sequence (looked up): T1 sequence (biotinylated in the ELISA of Table 4, looked up)

[16] = biological target: T7, recombinant mouse IL22R1 (mouse IL22R …); test: screening of clones selected on mouse IL22R; method not detailed

B1: 205A9 (antibody, part only; not given: parental heavy chain variable domain, V domains shown, part only)
VL: HSAVTQPSAVSVSLGQTARITCQGGNFGSYYASWYQQKPGQAPVLVIYDDDRRPSGIPERFSGSSSGGRSTLTISGAQSGDEGDYYCQSADLSGNPVFGGGTHLTVL
Kd [1]: 1.8 nM | koff [1]: 0.00048 s⁻¹ | kon [1]: 260000 M⁻¹ s⁻¹ | Absorption at 620 nm (relative absorption units) [2]: 1.97 | Absorption at 620 nm (relative absorption units) (cyno IL22R ECD (cyno) [3]): 2.18 | Kd [4]: 0.42 nM | koff [4]: 0.00028 s⁻¹ | kon [4]: 670000 M⁻¹ s⁻¹ | Absorption at 620 nm (relative absorption units) [5]: 2.59 | Absorption at 620 nm (relative absorption units) [6]: 2.57 | Absorption at 620 nm (relative absorption units) [7]: 1.86 | Absorption at 620 nm (relative absorption units) [8]: 2.36 | Absorption at 620 nm (relative absorption units) [9]: 1.03

B2: 205A5 (antibody, part only; not given: parental light chain variable domain, V domains shown, part only)
VH: QVQLVESGGGLVQPGGSLRLSCAASGFTFNSYEMYWVRQAPGKGLEWVSGITADGGYTYYADSVKGRFTMSRDNAKNTLYLQMNSLKPEDTALYYCANLWNDYWGQGTQVIVSS
Absorption at 620 nm (relative absorption units) (cyno IL22R ECD (cyno) [10]): 1.36 | Kd [1]: 0.007 nM | koff [1]: 1e-06 s⁻¹ | kon [1]: 150000 M⁻¹ s⁻¹ | Absorption at 620 nm (relative absorption units) [2]: 1.17 | Absorption at 620 nm (relative absorption units) (cyno IL22R ECD (cyno) [3]): 2.66 | Kd [4]: 0.0019 nM | koff [4]: 3.1e-07 s⁻¹ | kon [4]: 160000 M⁻¹ s⁻¹ | Absorption at 620 nm (relative absorption units) [5]: 2.77 | Absorption at 620 nm (relative absorption units) [6]: 2.93 | Absorption at 620 nm (relative absorption units) [7]: 0.172 | Absorption at 620 nm (relative absorption units) [8]: 2.36 | Absorption at 620 nm (relative absorption units) [9]: 1

B3: 170B2 (antibody, V domains shown)
VH: EVQLVESGGGLVQPGGSLRLSCAASGFTFSSSWMYWVRQAPGKGLEFVSVINTRSGITHYVESVKGRFTISTDNAKNTLFLQMNSLKSEDTAVYYCATRIQGLIDYWGQGTQVTVSS
VL: DIVMTQSPSSLSVSLGDRVTITCQASQSIGSVNALAWYQQKPGQSLKLLIHGASRLQTGVPSRFSGSGSGTSFTLAISGVEAEDLATYYCLQDYAWPLTFGQGTKVELK
notes: Llama-derived parental clone; also called VH_170B2; VK_170B2
Kd [11]: 0.12 nM | Potency (pM) BW-hIL22R [12]: 106 pM | IC50 pM (potency on human IL22R expressing cells) [13]: ~106 pM

B4: 196C2 (antibody, V domains shown)
VH: B3 VH
VL: DIQMTQSPSSLSASLGDRVTITCQASQSISSLLAWYQQKPGQAPKLLIYGASRLQTGVPSRFSGSGSGTSFTLTISGVEAEDLATYYCLQDYSWPLTFGQGTKVELK
notes: Vkappa-shuffled clone of 170B2 (keeps the 170B2 VH-CH1); also called VK_196C2
Kd [11]: 0.08 nM | Potency (pM) BaF3-mIL22R [14]: 870 pM | Potency (pM) BW-hIL22R [12]: 67 pM | Kd [15]: 0.45 nM | IC50 pM (potency on human IL22R expressing cells) [13]: 67 pM

B5: 196F8 (antibody, V domains shown)
VH: B3 VH
VL: B4 VL with L32M, K45N, G66R
notes: Vkappa-shuffled clone of 170B2 (keeps the 170B2 VH-CH1); also called VK_196F8
Kd [11]: 0.01 nM | Potency (pM) BaF3-mIL22R [14]: 105 pM | Potency (pM) BW-hIL22R [12]: 87 pM | Kd [15]: 0.31 nM | IC50 pM (potency on human IL22R expressing cells) [13]: 87 pM

B6: 197B7 (antibody, V domains shown)
VH: B3 VH
VL: B4 VL with Q3V, S30R, L32F, L33I, A34D, A51T, Q55E, S65T
notes: Vkappa-shuffled clone of 170B2 (keeps the 170B2 VH-CH1); also called VK_197B7
Kd [11]: 0.038 nM | Potency (pM) BaF3-mIL22R [14]: 160 pM | Potency (pM) BW-hIL22R [12]: 69 pM | Kd [15]: 0.39 nM | IC50 pM (potency on human IL22R expressing cells) [13]: 69 pM

B7: 197D3 (antibody, V domains shown)
VH: B3 VH
VL: B4 VL with I21V, S30R, L32S, A34N, Q55R, T56I, G66A, D91E, S93A
notes: Vkappa-shuffled clone of 170B2 (keeps the 170B2 VH-CH1); also called VK_197D3
Kd [11]: 0.089 nM | Potency (pM) BW-hIL22R [12]: 57 pM | Kd [15]: 0.37 nM | IC50 pM (potency on human IL22R expressing cells) [13]: 57 pM

B8: 198B7 (antibody, V domains shown)
VH: B3 VH
VL: B4 VL with L32Q
notes: Vkappa-shuffled clone of 170B2 (keeps the 170B2 VH-CH1); also called VK_198B7
binding result [16]: binds

B9: 198C9 (antibody, V domains shown)
VH: B3 VH
VL: DIVMTQSPSSLSASLGDRVTITCQATQSISTFLSWYQQKPGQTPKLLVYGASRLQTGVPSRFSGTGSGTKFTLTISGVEAEDLASYFCLQDYSWPLTFGQGTKVELK
notes: Vkappa-shuffled clone of 170B2 (keeps the 170B2 VH-CH1); also called VK_198C9
binding result [16]: binds | IC50 pM (potency on human IL22R expressing cells) [13]: 89 pM

B10: 198G11 (antibody, V domains shown)
VH: B3 VH
VL: DIVMTQSPSSLSASLGDRVTVTCQASQSIRSSLNWYQQKPGQAPKLLIYGASRLRIGVPSRFSGSASGTSFTLTISGVESEDLATYYCLQDYTWPLSFGSGTRLEIK
notes: Vkappa-shuffled clone of 170B2 (keeps the 170B2 VH-CH1); also called VK_198G11
binding result [16]: binds | IC50 pM (potency on human IL22R expressing cells) [13]: 132 pM

B11: 197G10 (antibody, V domains shown)
VH: B3 VH
VL: DIQMTQSPSSMSASLGDSVTISCQASENIGTQLFWYQQNAGQPPKLLIYGASRLQTGVPSRFSGSGSGTTFTLTISGVETGDLATYYCLQDYSWPLTFGQGTKVELK
notes: Vkappa-shuffled clone of 170B2 (keeps the 170B2 VH-CH1); also called VK_197G10
Kd [11]: 0.29 nM | Potency (pM) BaF3-mIL22R [14]: 790 pM | Potency (pM) BW-hIL22R [12]: 124 pM | Kd [15]: 0.45 nM | IC50 pM (potency on human IL22R expressing cells) [13]: 124 pM
